Source: PMC7677135 (Biophysical Journal, 2020)

Biological target: T1, PDK1 50–359 [Y288G,Q292A] (human, UniProt O15530 50-359, Y288G | Q292A)
T1 sequence (looked up): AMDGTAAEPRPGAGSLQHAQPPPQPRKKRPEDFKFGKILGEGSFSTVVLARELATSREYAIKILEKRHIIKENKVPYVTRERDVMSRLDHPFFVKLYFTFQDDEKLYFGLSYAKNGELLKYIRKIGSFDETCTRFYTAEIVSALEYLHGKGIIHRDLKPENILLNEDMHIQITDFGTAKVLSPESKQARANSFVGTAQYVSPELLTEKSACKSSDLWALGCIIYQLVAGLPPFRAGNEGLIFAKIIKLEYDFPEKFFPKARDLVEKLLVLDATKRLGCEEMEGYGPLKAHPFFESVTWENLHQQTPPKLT
Test: HDX-MS

## REPRILSEEEQEMFRDFDYIADWC [PIFtide]
  binding result: binds
